From PMC4161306, “Regulation of Arabidopsis Flowering by the Histone Mark Readers MRG1/2 via Interaction with CONSTANS to Modulate FT Expression” (PLoS Genetics, 2014)

Biological target: MRG2 chromodomain (residues 41-123) (Arabidopsis thaliana) (UniProt Q4V3E2)
Experiment: ITC; 25 C, MicroCal iTC200; 50 mM Tris pH 8.0, 100 mM NaCl; 0.2-0.4 mM protein in the cell, 2-4 mM peptide injected in 2 ul aliquots (20 injections); one-site model

MRG2 chromodomain (residues 41-123) (Arabidopsis thaliana), sequence (Q4V3E2 41-123): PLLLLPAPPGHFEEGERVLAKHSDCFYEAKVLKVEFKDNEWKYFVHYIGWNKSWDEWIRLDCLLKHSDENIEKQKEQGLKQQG

| Kd [µM] | Substance |
| --- | --- |
| 800 | H3K4me3 peptide (residues 1-9) |
| 690 | H3K36me3 peptide (residues 31-41) |
